These results are taken from patent publication US20240173425A1 (Eli Lilly, published 2024).

Residue numbers refer to the chain shown, from its start. Names and notes keep the numbering of the source.

Assay [1] addresses T1, human CD33 ECD 18-232-His (human, UniProt P20138 18-232).
T1 construct: Printed as 'CD33 ECD 18-232-His'; also called human CD33 extra-cellular domain; not shown: His tag
Briefly: SPR, Biacore 8K, antibody captured on Protein A chip, CD33 ECD-His as analyte, 37 C, 1:1 model. How it is done:
(§1) The affinity and binding kinetics of the exemplified anti-human CD33 antibodies to human and cynomolgus monkey CD33 ECD 18-232-His proteins was determined by surface plasmon resonance using Biacore 8K (GE Healthcare). Briefly, per the Instrument Handbook the antibody was captured on a Biacore Protein A chip followed by flowing CD33 ECD from 200 nM down to 0.782 nM in 2-fold serial dilution in PBS-P20-BSA (0.005% surfactant P20, 0.1 mg/mL BSA). All measurements were carried out at 37° C. Multi-cycle kinetics setting that ran each analyte concentration in a separate cycle regenerating the surface after each sample injection was used. The regeneration was optimized to maintain consistent surface properties from cycle to cycle. Each cycle started with a 3 minute injection of 0.1 μg/mL of the antibody at 10 μl/min flow rate, followed by 3 min injection of antigen at 50 μl/min flow rate and a 15 min dissociation phase in PBS-P20-BSA. The chip surface was then regenerated with 30 seconds injection of pH 1.5, 10 mM glycine buffer at 50 μl/min flow rate three times. The data was fit to a 1:1 binding model to derive kₐ and kd, and to calculate KD.
For orientation: SPR reads the build-up and loss of mass on a sensor chip optically.

Assay [2] deals with T2, cynomolgus monkey CD33 ECD 18-232-His (cynomolgus monkey).
T2 construct: also called cynomolgus monkey CD33 extra-cellular domain; not shown: His tag
T2 sequence (chain, as listed by the source): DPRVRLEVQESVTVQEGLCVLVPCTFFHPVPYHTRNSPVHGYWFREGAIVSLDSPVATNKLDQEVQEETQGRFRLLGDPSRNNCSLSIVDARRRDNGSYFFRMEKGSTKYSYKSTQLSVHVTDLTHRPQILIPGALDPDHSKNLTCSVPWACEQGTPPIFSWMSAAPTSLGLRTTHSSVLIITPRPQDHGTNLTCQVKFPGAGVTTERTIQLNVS
Described as above. How it is done: as §1

Assay [3] addresses T1, human CD33 ECD 18-232-His. Briefly: SPR, Biacore 8K, conjugate captured on Protein A chip, CD33 ECD-His as analyte, 37 C, 1:1 model. As to the method: as §1
Assay [4] deals with T2, cynomolgus monkey CD33 ECD 18-232-His. The assay is described as above. As to the method:
as §1

In assay [5] the target is T3, human CD33 on the cell surface of human monocytes / myeloid cells (human, UniProt P20138 18-364).
T3 construct: Native CD33 on primary human monocytes from PBMC; also called cell surface CD33; SIGLEC-3
T3 sequence (P20138 18-364 limits assumed): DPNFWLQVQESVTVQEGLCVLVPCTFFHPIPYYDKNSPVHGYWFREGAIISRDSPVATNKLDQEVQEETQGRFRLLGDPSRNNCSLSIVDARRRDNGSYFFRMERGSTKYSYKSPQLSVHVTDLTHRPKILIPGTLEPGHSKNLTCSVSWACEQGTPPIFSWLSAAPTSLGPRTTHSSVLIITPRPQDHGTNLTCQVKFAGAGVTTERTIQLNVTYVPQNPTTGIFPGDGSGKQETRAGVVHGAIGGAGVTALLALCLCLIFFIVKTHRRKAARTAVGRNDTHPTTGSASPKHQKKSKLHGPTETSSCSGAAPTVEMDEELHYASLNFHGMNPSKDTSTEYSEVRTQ
Briefly: FACS on human monocytes (gated from human PBMC), Alexa Fluor 647-labelled antibody, 4-fold dilutions, 30 min at 4 C, mean fluorescence intensity. How it is done:
Freshly isolated cells PBMCs were resuspended at 2×10⁶ cells/mL and allowed to rest for 15 minutes at room temperature, then plated at 100 μL/well into a round bottom 96-well plate (COSTAR®) and washed with FACS buffer (PBS containing 2% fetal bovine serum from Corning®). […] Data analysis was performed using FlowJo software and statistical analysis was performed using GraphPad Prism 9.

T1 sequence (P20138 18-232): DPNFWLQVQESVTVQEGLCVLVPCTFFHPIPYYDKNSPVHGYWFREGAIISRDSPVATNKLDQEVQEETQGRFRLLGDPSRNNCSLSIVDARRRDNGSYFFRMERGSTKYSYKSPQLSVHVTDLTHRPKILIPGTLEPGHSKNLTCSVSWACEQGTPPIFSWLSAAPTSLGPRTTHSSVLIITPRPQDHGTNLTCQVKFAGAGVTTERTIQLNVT

B1: anti-human CD33 antibody Ab2 (antibody, human IgG1, kappa, L234A L235A, V domains shown)
VH: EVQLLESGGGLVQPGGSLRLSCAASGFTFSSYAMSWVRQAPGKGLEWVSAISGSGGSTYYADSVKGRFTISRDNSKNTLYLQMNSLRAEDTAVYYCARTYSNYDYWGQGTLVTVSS
VL: DIQMTQSPSSLSASVGDRVTITCQASQPTFNYLNWYQQKPGKAPKLLIYDASNLQTGVPSRFSGSGSGTDFTFTISSLQPEDIATYYCQQYEDLPTFGPGTKVDIKR
notes: Fully human IgG1AAA with S124C and A378C (EU numbering); also called anti-human CD33 Ab2
For B1, in assay [1], the Kd – broadly, the concentration at which binding is half-saturated – worked out at 1.14 nM; the koff (in general, a measure of how fast the partners let go of each other) worked out at 0.000516 s⁻¹; the kon (commonly the rate constant with which the complex forms) was 454000 M⁻¹ s⁻¹. Moreover, in assay [2], the Kd is 4.28 nM, the koff worked out at 0.00279 s⁻¹ and the kon worked out at 653000 M⁻¹ s⁻¹.

B2: anti-human CD33 Ab2 GC conjugate of Example 1b (antibody, human IgG1, kappa, L234A L235A, V domains shown)
VH: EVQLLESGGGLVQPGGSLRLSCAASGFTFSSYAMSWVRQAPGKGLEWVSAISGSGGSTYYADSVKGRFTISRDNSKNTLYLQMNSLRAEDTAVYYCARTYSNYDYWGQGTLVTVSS
VL: B1 VL
modifications: glucocorticoid receptor agonist payload-linker GC-L (Preparation 8, maleimide) conjugated to the engineered cysteines at positions 124 and 378 (EU numbering) of the heavy chain; n is 4 (average DAR 3.92 to 3.97)
In assay [3], B2 registered a Kd of 1.47 nM, a koff of 0.000645 s⁻¹ and a kon of 439000 M⁻¹ s⁻¹. In assay [4], this molecule returned a Kd of 4.65 nM, a koff of 0.00478 s⁻¹ and a kon of 1.03e+06 M⁻¹ s⁻¹.

B3: anti-human CD33 antibody Ab1 (antibody, human IgG1, kappa, L234A L235A, V domains shown)
VH: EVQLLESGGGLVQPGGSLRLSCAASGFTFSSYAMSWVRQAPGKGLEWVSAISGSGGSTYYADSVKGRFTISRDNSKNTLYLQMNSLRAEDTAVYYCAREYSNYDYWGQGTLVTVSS
VL: B1 VL with P28D, T29V, N31R
notes: Fully human IgG1 with L234A, L235A, P329A (IgG1AAA, effector null) and engineered cysteines S124C and A378C (EU numbering), all already in the HC entry
In assay [1], B3 displayed a Kd of 3.4 nM, a koff of 0.00118 s⁻¹ and a kon of 346000 M⁻¹ s⁻¹.

B4: anti-human CD33 antibody Ab3 (antibody, human IgG1, kappa, L234A L235A, V domains shown)
VH: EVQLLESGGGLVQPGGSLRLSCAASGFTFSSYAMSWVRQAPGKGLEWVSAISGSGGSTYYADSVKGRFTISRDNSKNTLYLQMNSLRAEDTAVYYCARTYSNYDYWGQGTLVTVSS
VL: B1 VL with F30Y, N31I
notes: Fully human IgG1AAA with S124C and A378C (EU numbering)
B4: in assay [1], the Kd is 0.854 nM, the koff stood at 0.000486 s⁻¹ and the kon is 570000 M⁻¹ s⁻¹. In assay [2], this molecule registered a Kd of 0.812 nM, a koff of 0.00108 s⁻¹ and a kon of 1.34e+06 M⁻¹ s⁻¹. Further, the EC50 (read off the curve) (in general, the midpoint of the concentration-response curve) in assay [5] was approximately 5 ng/mL.
